In US20230391828:

Test system: T1, G3-6, Ac-cyclo(4,11)-EWWZIKEIQRXRRA-NH2
T1 sequence: EWWXIKEIQRXRRA

How did the “in vitro APC/C ubiquitination assay with different E2 enzymes (UBE2C, UBE2D, UBE2S), Ub-cyclin B1 substrate, 100 µM, 40 min” value turn out when “recombinant human APC/C (Strep-tagged APC4), expressed in SF9 cells” was run?
The value was “The lead molecule G3-6 (SEQ. ID. NO. 33) inhibits APC/C in vitro independently on employed E2 enzymes”.
